This passage reports protein stability index results from the supplement of paper PMC10567573.

To fix the notation:
B1: NECAB1 (parent)
chain: NLDTEELCEYFSQHLGEYENVLAA
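Also: lentivirally expressed fusions sorted by FACS into six bins by GFP to DsRed ratio, PSI derived from sequencing read proportions per bin multiplied by bin number.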

Variants of B1 are the subject of the data set. Briefly: protein stability index of a GFP-peptide fusion (GPS, HEK-293T) (PSI 1-6); higher = more stable. Conditions: c terminus: a fixed tail appended.
As for NLDTEELCEYFSQHLGEPENVLAA [Y18P], the protein stability index came to 4.28.
With NLDTEELCEYFSQHLGESENVLAA [Y18S] the figure was 4.56; with NLDTEELCEYFSQHLGEAENVLAA [Y18A], 4.2; with NLDTEELCEYFSQHLGEEENVLAA [Y18E], 5.13.
Consider NLDTEELCEYFSQHLGERENVLAA [Y18R], for which the protein stability index came to 4.21.
Turning to NLDTEELCEYFSQHLGETENVLAA [Y18T], the protein stability index is 4.37.
To NLDTEELCEYFSQHLGEDENVLAA [Y18D] belongs 5.13.
In the case of NLDTTELCEYFSQHLGEYENVLAA [E5T], the protein stability index amounted to 2.4.
With NLDTCELCEYFSQHLGEYENVLAA [E5C] the figure was 1.92; with NLDTSELCEYFSQHLGEYENVLAA [E5S], 1.93; with NLDTNELCEYFSQHLGEYENVLAA [E5N], 2.4.
With NLDTQELCEYFSQHLGEYENVLAA [E5Q] the figure was 1.97; with NLDTFELCEYFSQHLGEYENVLAA [E5F], 1.47.
As to NLDTRELCEYFSQHLGEYENVLAA [E5R], the protein stability index was 2.13.
With NLDTGELCEYFSQHLGEYENVLAA [E5G] the figure was 1.99; with NLDTEELCEYFSQHLGEYRNVLAA [E19R], 1.84; with NLDTEELCEYFSQHLGEYQNVLAA [E19Q], 2.4.
With NLDTEELCEYFSQHLGEYINVLAA [E19I] the figure was 4.56; with NLDTEKLCEYFSQHLGEYENVLAA [E6K], 2.08.
NLDTEYLCEYFSQHLGEYENVLAA [E6Y]: the protein stability index stood at 2.46.
On to NLDTEILCEYFSQHLGEYENVLAA [E6I], for which the protein stability index came to 2.13.
With NLDTEMLCEYFSQHLGEYENVLAA [E6M] the figure was 1.71; with NLDTENLCEYFSQHLGEYENVLAA [E6N], 2.42.
Turning to NLDTERLCEYFSQHLGEYENVLAA [E6R], the protein stability index came to 1.8.
With NLDTESLCEYFSQHLGEYENVLAA [E6S] the figure was 1.92; with NLDTETLCEYFSQHLGEYENVLAA [E6T], 2.34.
To NLDTEELCEYFSQHLGEYENVLSA [A23S] belongs 2.23.
To NLDTEELCEYFSQHLGEYENVLMA [A23M] belongs 2.18; to NLDTEELCEYFSQHLGEYENVLIA [A23I], 2.02; to NLDTEELCEYFSQHLGEYENVLFA [A23F], 2.28.
On to NLDTEELCEYFSQHLGEYENVLQA [A23Q], for which the protein stability index is 3.68.
To NLDTEELCEYFSQHLGEYENVLHA [A23H] belongs 2.83; to NLDTEELCEYFSQHLGEYENVLGA [A23G], 2.93; to NLDTEELCEEFSQHLGEYENVLAA [Y10E], 4.69.
For the variant NLDTEELHEYFSQHLGEYENVLAA [C8H], the protein stability index is 4.07.
To NLDTEELIEYFSQHLGEYENVLAA [C8I] belongs 2.52.
To NLDTEELREYFSQHLGEYENVLAA [C8R] belongs 3.17.
With NLDTEELTEYFSQHLGEYENVLAA [C8T] the figure was 3.62; with NLDTEELYEYFSQHLGEYENVLAA [C8Y], 3.46; with NLDTEELCEYFSRHLGEYENVLAA [Q13R], 3.25.
As to NLDTEELCEYFSDHLGEYENVLAA [Q13D], the protein stability index was 4.13.
Regarding NLDTEELCEYFSVHLGEYENVLAA [Q13V], the protein stability index turned out to be 2.7.
To NLDTEELCEYFSGHLGEYENVLAA [Q13G] belongs 3.3; to NLDTEELCEYFSMHLGEYENVLAA [Q13M], 2.06.
Turning to NLDMEELCEYFSQHLGEYENVLAA [T4M], the protein stability index came to 2.66.
To NLDKEELCEYFSQHLGEYENVLAA [T4K] belongs 2.69.
To NLDGEELCEYFSQHLGEYENVLAA [T4G] belongs 3.91; to NLDDEELCEYFSQHLGEYENVLAA [T4D], 4.33.
With NLDWEELCEYFSQHLGEYENVLAA [T4W] the figure was 2.63.
With NLDTEELCEYFSQHLGEYEFVLAA [N20F], the protein stability index was determined as 1.66.
In the case of NLDTEELCEYFSQHLGEYEQVLAA [N20Q], the protein stability index amounted to 2.14.
Regarding NLDTEELCEYFPQHLGEYENVLAA [S12P], the protein stability index amounted to 4.53.
Take NLDTEELCEYFYQHLGEYENVLAA [S12Y]: the protein stability index is 2.91.
Take NLDTEELCEYFDQHLGEYENVLAA [S12D]: the protein stability index amounted to 4.
To NLDTEELCEYFMQHLGEYENVLAA [S12M] belongs 1.98; to NLDTEELCEYFKQHLGEYENVLAA [S12K], 2.09; to NLDTEELCEYFGQHLGEYENVLAA [S12G], 4.
To NLDTEELCEYFCQHLGEYENVLAA [S12C] belongs 2.53; to NLDTEELCEYFFQHLGEYENVLAA [S12F], 3.17.
NLDTEELCEYQSQHLGEYENVLAA [F11Q]: the protein stability index is 4.44.
To NLDTEELCEYSSQHLGEYENVLAA [F11S] belongs 4.65; to NLDTEELCEYYSQHLGEYENVLAA [F11Y], 4.33; to NLDTEELCEYASQHLGEYENVLAA [F11A], 4.18.
Consider NLDTEELCEYLSQHLGEYENVLAA [F11L], for which the protein stability index stood at 2.
To NLDTEELCEYFSQHLGEYENVTAA [L22T] belongs 4.36; to NLDTEELCEYFSQHLGEYENVEAA [L22E], 4.42; to NLDTEELCEYFSQHLGEYENVKAA [L22K], 4.61.
Take NLDTEELCEYFSQHLGEYENVYAA [L22Y]: the protein stability index was found to be 3.52.
Turning to NLDTEELCEYFSQHLGEYENVNAA [L22N], the protein stability index worked out at 4.36.
With NLDTEELCEYFSQHLGEYENVCAA [L22C] the figure was 4.64.
Consider NLDTEELCEYFSQHLGEYENVMAA [L22M], for which the protein stability index was found to be 3.71.
As for NLDTEELCEYFSQHLGEYENVAAA [L22A], the protein stability index stood at 4.35.
Turning to NLDTEELCEYFSQHLGEYENVDAA [L22D], the protein stability index was found to be 4.98.
As to NLDTEELCEYFSQHLGEYENVLAD [A24D], the protein stability index was 3.98.
With NLDTEELCEYFSQHLGEYENVLAG [A24G] the figure was 2.22; with NLDTEELCEYFSQHLGEYENVLAN [A24N], 2.02.
To NLDTEELCEYFSQHLGEYENVLAM [A24M] belongs 1.92; to NLDTEELCEYFSQHLGEYENVLAT [A24T], 2.99; to NLDTEELCEYFSQHLGEYENVLAE [A24E], 3.53.
As for NLDTEELCEYFSQHLGEYENVLAV [A24V], the protein stability index was 2.8.
To NLDTEELCEYFSQHLGEYENVLAF [A24F] belongs 2.02; to NLDTEELCEYFSQHLGTYENVLAA [E17T], 2.51; to NLDTEELCEYFSQHLGPYENVLAA [E17P], 2.64.
Turning to NLDTEELCEYFSQHLGKYENVLAA [E17K], the protein stability index was 1.34.
To NLDTEELCEYFSQHLGCYENVLAA [E17C] belongs 2.31.
To NLDTEELCEYFSQHLGVYENVLAA [E17V] belongs 2.33; to NLDTEELCEYFSQHLGLYENVLAA [E17L], 2.62; to NLDTEELCEYFSQHLFEYENVLAA [G16F], 2.27.
To NLDTEELCEYFSQHLCEYENVLAA [G16C] belongs 1.88.
For the variant NLDTEELCEYFSQHLREYENVLAA [G16R], the protein stability index came to 1.78.
Take NLDTEELCEYFSQHLYEYENVLAA [G16Y]: the protein stability index was 1.58.
With CLDTEELCEYFSQHLGEYENVLAA [N1C] the figure was 2.67; with ALDTEELCEYFSQHLGEYENVLAA [N1A], 2.94; with PLDTEELCEYFSQHLGEYENVLAA [N1P], 3.68.
To RLDTEELCEYFSQHLGEYENVLAA [N1R] belongs 3.54; to DLDTEELCEYFSQHLGEYENVLAA [N1D], 1.87.
With ILDTEELCEYFSQHLGEYENVLAA [N1I] the figure was 2.66; with NLDTEEWCEYFSQHLGEYENVLAA [L7W], 3.85; with NLDTEEFCEYFSQHLGEYENVLAA [L7F], 3.55.
Turning to NLDTEERCEYFSQHLGEYENVLAA [L7R], the protein stability index stood at 4.49.
To NLDTEEKCEYFSQHLGEYENVLAA [L7K] belongs 4.7; to NLDTEEICEYFSQHLGEYENVLAA [L7I], 3.01.
To NLDTEELCEYFSQPLGEYENVLAA [H14P] belongs 4.44; to NLDTEELCEYFSQMLGEYENVLAA [H14M], 2.98.
NLDTEELCEYFSQQLGEYENVLAA [H14Q]: the protein stability index turned out to be 3.35.
Regarding NLDTEELCEYFSQWLGEYENVLAA [H14W], the protein stability index amounted to 1.84.
To NLDTEELCEYFSQFLGEYENVLAA [H14F] belongs 2.02.
With NLDTEELCEYFSQCLGEYENVLAA [H14C] the figure was 3.63.
With NLDTEELCEYFSQSLGEYENVLAA [H14S] the figure was 3.81; with NLDTEELCEYFSQDLGEYENVLAA [H14D], 3.86; with NLDTEELCEYFSQVLGEYENVLAA [H14V], 3.01.
In the case of NLDTEELCEYFSQLLGEYENVLAA [H14L], the protein stability index worked out at 2.09.
With NLDTEELCEYFSQKLGEYENVLAA [H14K] the figure was 2.73; with NLDTEELCEYFSQHLGEYENALAA [V21A], 2.9; with NLDTEELCEYFSQHLGEYENNLAA [V21N], 4.05.
With NLDTEELCEYFSQHLGEYENDLAA [V21D] the figure was 4.86.
As for NLDTEELCEYFSQHLGEYENPLAA [V21P], the protein stability index was determined as 4.46.
As to NLDTEELCEYFSQHLGEYENELAA [V21E], the protein stability index stood at 4.2.
With NLDTEELCEYFSQHLGEYENMLAA [V21M] the figure was 1.88; with NLDTEELCEYFSQHLGEYENQLAA [V21Q], 3.52; with NLDTEELCEYFSQHLGEYENYLAA [V21Y], 1.98.
As for NLQTEELCEYFSQHLGEYENVLAA [D3Q], the protein stability index turned out to be 1.94.
As for NLATEELCEYFSQHLGEYENVLAA [D3A], the protein stability index stood at 2.25.
Consider NLDTEELCEYFSQHVGEYENVLAA [L15V], for which the protein stability index came to 2.04.
On to NLDTEELCEYFSQHQGEYENVLAA [L15Q], for which the protein stability index amounted to 4.
To NLDTEELCEYFSQHTGEYENVLAA [L15T] belongs 3.28; to NLDTEELCEYFSQHHGEYENVLAA [L15H], 3.91; to NLDTEELCEYFSQHPGEYENVLAA [L15P], 4.55.
To NLDTEELCLYFSQHLGEYENVLAA [E9L] belongs 1.91.
For the variant NLDTEELCPYFSQHLGEYENVLAA [E9P], the protein stability index was 3.97.
With NLDTEELCTYFSQHLGEYENVLAA [E9T] the figure was 2.3.
To NWDTEELCEYFSQHLGEYENVLAA [L2W] belongs 2.21; to NGDTEELCEYFSQHLGEYENVLAA [L2G], 3.85.
As for NHDTEELCEYFSQHLGEYENVLAA [L2H], the protein stability index is 3.52.
With NNDTEELCEYFSQHLGEYENVLAA [L2N] the figure was 3.72; with NRDTEELCEYFSQHLGEYENVLAA [L2R], 4.
